Paper PMC7948490 (2020)

Columns and labels:
[1] = biological target: T1, F-actin (alpha-actin, skeletal muscle) (Gallus gallus, UniProt P68139); test: stopped-flow pyrene-actin fluorescence (k-A/k+A), 20 °C, no nucleotide
[2] = biological target: T1, F-actin (alpha-actin, skeletal muscle); test: kinetic global fit (KinTek Explorer), no nucleotide
[3] = biological target: T1, F-actin (alpha-actin, skeletal muscle); test: kinetic global fit (KinTek Explorer)

Binder | Kd [1] [nM] | Kd [2] [nM] | Kd [3] [µM]
Myosin-1C0-ΔTH1 isoform C0 lacking TH1 domain (protein) MESALTARDRVGVQDFVLLENFTSEAAFIENLRRRFRENLIYTYIGPVLVSVNPYRDLQIYSRQHMERYRGVSFYEVPPHLFAVADTVYRALRTERRDQAVMISGESGAGKTEATKRLLQFYAETCPAPERGGAVRDRLLQSNPVLEAFGNAKTLRNDNSSRFGKYMDVQFDFKGAPVGGHILSYLLEKSRVVHQNHGERNFHIFYQLLEGGEEETLRRLGLERNPQSYLYLVKGQCAKVSSINDKSDWKVVRKALTVIDFTEDEVEDLLSIVASVLHLGNIHFAANEESNAQVTTENQLKYLTRLLSVEGSTLREALTHRKIIAKGEELLSPLNLEQAAYARDALAKAVYSRTFTWLVGKINRSLASKDVESPSWRSTTVLGLLDIYGFEVFQHNSFEQFCINYCNEKLQQLFIELTLKSEQEEYEAEGIAWEPVQYFNNKIICDLVEEKFKGIISILDEECLRPGEATDLTFLEKLEDTVKHHPHFLTHKLADQRTRKSLGRGEFRLLHYAGEVTYSVTGFLDKNNDLLFRNLKETMCSSKNPIMSQCFDRSELSDKKRPETVATQFKMSLLQLVEILQSKEPAYVRCIKPNDAKQPGRFDEVLIRHQVKYLGLLENLRVRRAGFAYRRKYEAFLQRYKSLCPETWPTWAGRPQDGVAVLVRHLGYKPEEYKMGRTKIFIRFPKTLFATEDALEVRRQSLATKIQAAWRGFHWRQKFLRVKRSAICIQSWWRGTLGRRKAAKRKWAAQTIRRLIRGFVLRHAPRCPENAFFLDHVRTSFLLNLRRQLPQNVLDTSWPTPPPALREASELLRELCIKNMVWKYCRSISPEWKQQLQQKAVASEIFKGK | 13.7 | 13 | 10.8
Myosin-1C35-ΔTH1 isoform C35 lacking TH1 domain (protein) MALQVELVPTGEIIRVVHPHRPCKLALGSDGVRVTMESALTARDRVGVQDFVLLENFTSEAAFIENLRRRFRENLIYTYIGPVLVSVNPYRDLQIYSRQHMERYRGVSFYEVPPHLFAVADTVYRALRTERRDQAVMISGESGAGKTEATKRLLQFYAETCPAPERGGAVRDRLLQSNPVLEAFGNAKTLRNDNSSRFGKYMDVQFDFKGAPVGGHILSYLLEKSRVVHQNHGERNFHIFYQLLEGGEEETLRRLGLERNPQSYLYLVKGQCAKVSSINDKSDWKVVRKALTVIDFTEDEVEDLLSIVASVLHLGNIHFAANEESNAQVTTENQLKYLTRLLSVEGSTLREALTHRKIIAKGEELLSPLNLEQAAYARDALAKAVYSRTFTWLVGKINRSLASKDVESPSWRSTTVLGLLDIYGFEVFQHNSFEQFCINYCNEKLQQLFIELTLKSEQEEYEAEGIAWEPVQYFNNKIICDLVEEKFKGIISILDEECLRPGEATDLTFLEKLEDTVKHHPHFLTHKLADQRTRKSLGRGEFRLLHYAGEVTYSVTGFLDKNNDLLFRNLKETMCSSKNPIMSQCFDRSELSDKKRPETVATQFKMSLLQLVEILQSKEPAYVRCIKPNDAKQPGRFDEVLIRHQVKYLGLLENLRVRRAGFAYRRKYEAFLQRYKSLCPETWPTWAGRPQDGVAVLVRHLGYKPEEYKMGRTKIFIRFPKTLFATEDALEVRRQSLATKIQAAWRGFHWRQKFLRVKRSAICIQSWWRGTLGRRKAAKRKWAAQTIRRLIRGFVLRHAPRCPENAFFLDHVRTSFLLNLRRQLPQNVLDTSWPTPPPALREASELLRELCIKNMVWKYCRSISPEWKQQLQQKAVASEIFKGK | 16.9 | 16.3 | 22.2
